Publication PMC3223204, “Implantation Serine Proteinase 1 Exhibits Mixed Substrate Specificity that Silences Signaling via Proteinase-Activated Receptors” (PLoS ONE, 2011)
Entries after “also recorded” stand apart in the source; their conditions may differ.

Assays:
[1] = tested on: rat PAR2-expressing KNRK cells; experiment: P44/42 ERK/MAP kinase activation in rat PAR2-expressing KNRK cells; assay type: cell-based; conditions: ISP1 for 10 min
Protocol: Western blot detection of P44/42 ERK was performed essentially as described. In brief, KNRK cells that had been transfected with the PAR2 expressing construct (PAR2 -KNRK) or empty vector (pcDNA3-KNRK) were serum starved and stimulated with ISP1 for 10 min. Cells were placed on ice and agonists were removed prior to lysis with cold lysis buffer (Roche). Protein samples were boiled for 10 min in Laemelis buffer and resolved on SDS-PAGE gels. Activation of MAP Kinase was monitored by immunoblotting with phospho-specific ERK antibodies (Cell signaling) and relative increases in ERK phosphorylation was quantified relative to total ERK signal detected in the same samples. As a positive control cells were activated with SLIGRL-NH2 that causes a PAR2-mediated increase in MAPkinase phosphorylation.

human PAR1 = target: T1, human PAR1 (Homo sapiens, UniProt P25116); experiment: Calcium signaling assay, PAR1 activation/disarming in HEK cells; assay type: cell-based
T1 construct: The human HEK293 cells, that constitutively express both PAR1 and PAR2; endogenous in cells; host or cells: HEK293 (expressing SV40 T-antigen)
T1 sequence (P25116 22-425): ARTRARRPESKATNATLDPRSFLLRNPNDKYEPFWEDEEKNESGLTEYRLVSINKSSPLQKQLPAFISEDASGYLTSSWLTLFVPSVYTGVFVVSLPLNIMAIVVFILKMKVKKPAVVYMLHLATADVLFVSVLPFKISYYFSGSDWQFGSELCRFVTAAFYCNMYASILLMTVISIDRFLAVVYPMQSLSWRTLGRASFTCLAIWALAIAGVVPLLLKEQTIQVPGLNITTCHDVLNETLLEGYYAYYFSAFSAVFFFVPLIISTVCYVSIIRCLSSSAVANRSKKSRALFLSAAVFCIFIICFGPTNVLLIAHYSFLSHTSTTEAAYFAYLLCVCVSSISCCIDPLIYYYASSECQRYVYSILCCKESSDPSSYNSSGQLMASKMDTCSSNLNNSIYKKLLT
Source text: The Kirsten virus-transformed normal rat kidney (KNRK) epithelial cell line expressing wild-type rat PAR2 (KNRKrPAR2), validated previously for studies of receptor activation was used to evaluate the PAR2-regulating properties of the ISP1 by the methods described previously. Human embryonic kidney cells (HEK293) that express the SV40 T-antigen were kindly provided by Dr. Jonathan Lytton, University of Calgary, Faculty of Medicine, Calgary (Alberta) Canada. The human HEK293 cells, that constitutively express both PAR1 and PAR2, were grown under similar conditions as described for the KNRK cells, but in the absence of geneticin, as outlined for the PAR-mediated calcium signaling procedure described previously. All cells were sub-cultured by dissociation in an isotonic EDTA/saline solution, pH 7.4, without the use of trypsin, to avoid cleavage of PARs.
Cell lines (grown to about 85% confluence and disaggregated with calcium-free isotonic phosphate-buffered saline containing 0.2 mM EDTA) and rat platelets (harvested from platelet-rich anti-coagulated plasma) were prepared and used as previously described. Cells were incubated for 25 min at room temperature with Fluo-3 acetoxymethyl ester (final concentration, 22 µM) along with 0.4 mM sulfinpyrazone. Cells were washed twice by centrifugation (using the following buffer without calcium) and resuspended in the calcium signaling buffer: 150 mM NaCl, 3 mM KCl, 1.5 mM CaCl2, 20 mM HEPES, 10 mM dextrose, and 0.25 mM sulfinpyrazone, pH 7.4.
Fluorescence was measured at 24 °C with an excitation wavelength of 480 nm and an emission recorded at 530 nm using an Aminco Bowman Series 2 Luminescence spectrometer (ThermoSpectronic Model FA354, Spectronic Unicam, Rochester, NY). The fluorescence signals caused by the addition of test agonists (trypsin, PAR-activating peptide or rISP1, added to 2 ml of a cell suspension of ~3 x 10^5 cells/ml) were compared with the fluorescence peak height yielded by replicate cell suspensions treated with 2 µM ionophore A23187. This concentration of A23187 was at the plateau of its concentration-response curve for a fluorescence response in Fluo-3-loaded cultured cells. Under these conditions, the calculated values for intracellular calcium in the HEK and KNRK cells were [picture] […]
Previous work has shown that the fluorescence response of a cell preparation, as a percentage relative to the signal generated by 2 µM A23187, is a valid reference standard for the comparative determination of calcium signals for all PAR agonists. The cellular calcium response was therefore recorded as a percentage of the response generated by 2 µM ionophore A23187 [6]. […]
Receptor activation was monitored as an enzyme-stimulated increase in fluorescence emission (E530). […]

trypsin = target: T2, trypsin (Sus scrofa, UniProt P00761); experiment: Effect of ISP1 on enzyme activity of trypsin; assay type: biochemical; conditions: data not shown
T2 construct: Porcine trypsin (cat. number T-3030; 14,500 units/mg); purchased Sigma-Aldrich T-3030 (printed as T0303); host or cells: porcine pancreas
T2 sequence (P00761 9-231): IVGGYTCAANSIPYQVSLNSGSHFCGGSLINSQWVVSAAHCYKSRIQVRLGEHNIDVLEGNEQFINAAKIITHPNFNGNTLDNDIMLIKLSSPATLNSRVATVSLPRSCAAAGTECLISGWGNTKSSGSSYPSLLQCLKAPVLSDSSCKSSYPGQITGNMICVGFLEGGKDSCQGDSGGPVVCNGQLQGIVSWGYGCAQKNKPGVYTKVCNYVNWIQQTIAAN

Cellular response to PAR1-activating peptide after ISP1 pre-treatment (human PAR1; TFLLR-NH2 (5 µM), concentration-dependent): diminished
Activation of a calcium signal via PAR1 (human PAR1; enzyme alone): did not activate a calcium signal
residual PAR1 activity (human PAR1; pre-treatment with 5 Units/ml ISP1, then thrombin (0.5 units/ml)): 20%
residual PAR1 activity (human PAR1; pre-treatment with 20 units ISP1/ml, then thrombin (0.5 units/ml)): eliminate PAR1 activity completely
Inhibitory effect on enzyme activity of trypsin (trypsin): doesn't have any inhibitory effect
B1: ISP1: recombinant implantation serine proteinase 1 expressed in Pichia pastoris, also known as Mouse Prss28 (protein, UniProt Q924N9 27-274, looked up)
Serine protease 28: KPVGIVGGQRTPPGKWPWQVSLRMYSYEVNSWVHICGGSIIHPQWILTAAHCIQSQDADPAVYRVQVGEVYLYKEQELLNISRIIIHPDYNDVSKRFDLALMQLTALLVTSTNVSPVSLPKDSSTFDSTDQCWLVGWGNLLQRVPLQPPYQLHEVKIPIQDNKSCKRAYRKKSSDEHKAVAIFDDMLCAGTSGRGPCFGDSGGPLVCWKSNKWIQVGVVSKGIDCSNNLPSIFSRVQSSLAWIHQHIQ
modifications: recombinant, Pichia pastoris-expressed
notes: recombinant implantation serine proteinase 1 expressed in Pichia pastoris, also known as Mouse Prss28
Phosphorylation status of ERK via MAP kinase activation [1]: No change in phosphorylation status of ERK; also recorded: No activation of ERK
